Results from patent publication US20040092714A1.

Target: OSCAR specific ligand expressed on the surface of primary murine osteoblast cells (murine)
Experiment: cell-based or functional assay

- dentine resorption pits per slice (pits per slice): 7
- inhibition of dentine resorption (fold): > 10 fold
Substance: soluble murine OSCAR-Ig fusion polypeptide (extracellular domain of murine OSCAR fused to the Fc region of human IgG1) (Fc fusion)
